B1: RVFV glycoprotein Gn head domain (154–469 aa) (domain or fragment)
chain: EDPHLRNRPGKGHNYIDGMTQEDATCKPVTYAGACSSFDVLLEKGKFPLFQSYAHHRTLLEAVHDTIIAKADPPSCDLLSAHGNPCMKEKLVMKTHCPNDYQSAHHLNNDGKMASVKCPPKYELTEDCNFCRQMTGASLKKGSYPLQDLFCQSSEDDGSKLKTKMKGVCEVGVQALKKCDGQLSTAHEVVPFAVFKNSKKVYLDKLDLKTEENLLPDSFVCFEHKGQYKGTMDSGQTKRELKSFDISQCPKIGGHGSKKCTGDAAFCSAYECTAQYANAYCSHANGSGIVQIQVSGVWKKPLCVGYERVVVKRELS

How the values were obtained:
Details in all cases: both partners purified
[1] = target: B1; assay: BLI; […]; 300 s association, 300 s dissociation; […], global 1:1 model; Octet RED96
[2] = target: T1, LRP1 cluster IV (CL IV, 3332–3779 aa) (human, UniProt Q07954 3332-3779); assay: as above
[3] = target: T2, LRP1 cluster II (CL II, 786–1165 aa) (human, UniProt Q07954 786-1165); assay: as above
T2 construct: not shown: FLAG or 6 × HIS (same vector as Gn)
T2 sequence: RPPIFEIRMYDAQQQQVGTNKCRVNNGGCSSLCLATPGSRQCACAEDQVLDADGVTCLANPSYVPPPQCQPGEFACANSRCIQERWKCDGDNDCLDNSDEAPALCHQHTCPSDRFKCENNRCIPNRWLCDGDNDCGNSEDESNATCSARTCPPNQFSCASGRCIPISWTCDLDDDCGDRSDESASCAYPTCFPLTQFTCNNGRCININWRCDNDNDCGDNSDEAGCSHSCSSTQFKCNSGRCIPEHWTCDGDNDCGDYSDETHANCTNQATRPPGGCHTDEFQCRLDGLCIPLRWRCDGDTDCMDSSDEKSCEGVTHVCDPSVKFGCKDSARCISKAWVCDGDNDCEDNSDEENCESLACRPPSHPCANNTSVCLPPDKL

[4] = target: T1, LRP1 cluster IV (CL IV, 3332–3779 aa); assay: BLI
[5] = target: T2, LRP1 cluster II (CL II, 786–1165 aa); assay: BLI

T1 sequence (Q07954 3332-3779): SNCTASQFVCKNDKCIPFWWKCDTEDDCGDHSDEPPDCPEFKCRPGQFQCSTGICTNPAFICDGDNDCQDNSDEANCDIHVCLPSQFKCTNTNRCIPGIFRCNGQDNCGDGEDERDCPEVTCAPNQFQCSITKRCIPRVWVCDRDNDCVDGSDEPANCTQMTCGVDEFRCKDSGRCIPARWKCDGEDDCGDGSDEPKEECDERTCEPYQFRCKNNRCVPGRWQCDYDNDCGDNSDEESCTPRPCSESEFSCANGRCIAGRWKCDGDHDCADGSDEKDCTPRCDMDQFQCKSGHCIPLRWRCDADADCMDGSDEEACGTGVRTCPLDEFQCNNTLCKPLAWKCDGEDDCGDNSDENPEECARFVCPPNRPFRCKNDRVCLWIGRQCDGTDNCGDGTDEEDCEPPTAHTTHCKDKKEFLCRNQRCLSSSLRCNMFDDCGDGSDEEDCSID

Binder | Kd [1] [nM] | Kd [2] [nM] | Kd [3] [nM] | Kd [4] [nM] | Kd [5] [nM]
LRP1 CL IV-B, repeats A25–A28 (3492–3649 aa) (domain or fragment) not shown | 36 |  |  |  | 
LRP1 CL IV-A, repeats A21–A24 (3332–3491 aa) (domain or fragment) not shown | 72 |  |  |  | 
B1 |  | 56 | 89 | 120 | 220

Reference: PMC12839305 (Biomolecules, 2025)
